B1: T13-GL (antibody, human IgG1, V domains shown)
VH: EVQLVESGGGLVQPGGSLRLSCAASGFTFSSYDMHWVRQATGKGLEWVSAIGTAGDTYYPGSVKGRFTISRENAKNSLYLQMNSLRAGDTAVYYCARGIAVAGFPLDVWGKGTTVTVSS
VL: not shown
notes: also called germline version of T13
B2: T12 (antibody, human IgG1, V domains shown)
VH: EVQLVESGGGLVQPGGSLRLSCAASGFTFNNHDMHWVRQVTGKGLEWVSSIGNFGDTYYSGSVKGRFTISRQDAKNSLYLQMNRLRVGDTAVYYCARGRAVAGNPLDVWGKGTTVTVSS
VL: EIVMTQSPATLSVSPGETATLSCRANQTLYNNLAWYQQKPGQAPRLLIYSGSTRATGIPARFSGSGSGTEFSLTISSLQSEDFAVYYCQHYTPWPPYTFGQGTKVDFK

What was measured:
BSA = BSA (bovine, UniProt P02769); test: dose-response ELISA, O.D. 630
Experimental: ELISA reactions were carried out using flat-bottom MaxiSorp™ 96-well plates (Invitrogen). Antigen coating was performed in PBS at 1001 per well and left overnight at 4° C. For standard dose response ELISA assays, antigens were plated at a concentration of 1 μg/ml. For comparative ELISA assays with multiple antigen targets, antigens were plated at a constant molar concentration of 50 nM. The plates were washed 5 times with washing buffer (1×PBS with 0.05% Tween-20 (Sigma-Aldrich)) and incubated with 1001 blocking buffer (1×PBS with 1% BSA) for 1 h at room temperature. The blocking solution was subsequently replaced by serial dilutions of either mono- or polyclonal antibodies or serum samples for 2.5 h at RT. For standard dose response ELISA assays, antibodies were introduced over a range of dilutions whereas for ELISA screens, antibodies were introduced at 100 nM. Serum samples were assayed at a dilution of 1:100. Plates were washed 5 times with washing buffer and then incubated with anti-human IgG secondary antibody conjugated to horseradish peroxidase (HRP) (Jackson Immuno Research) in PBS at a 1:5,000 dilution. After washing the plates for additional 5 times, the plates were developed using TMB (Thermo Fisher) and absorbance was measured at 630 nm with an ELISA microplate reader (Synergy HTX plate reader, Biotek). […]

[1] = molecular target: T1, ROI-1 peptide of MMP14 (I-A loop); test: peptide validation ELISA: antibody plated, biotinylated peptide titrated, streptavidin-HRP; the concentration is that of the peptide
T1 construct: also called 'ROI-peptide'; 'Peptide (ROI)'

BSA, sequence (P02769 25-607 limits assumed): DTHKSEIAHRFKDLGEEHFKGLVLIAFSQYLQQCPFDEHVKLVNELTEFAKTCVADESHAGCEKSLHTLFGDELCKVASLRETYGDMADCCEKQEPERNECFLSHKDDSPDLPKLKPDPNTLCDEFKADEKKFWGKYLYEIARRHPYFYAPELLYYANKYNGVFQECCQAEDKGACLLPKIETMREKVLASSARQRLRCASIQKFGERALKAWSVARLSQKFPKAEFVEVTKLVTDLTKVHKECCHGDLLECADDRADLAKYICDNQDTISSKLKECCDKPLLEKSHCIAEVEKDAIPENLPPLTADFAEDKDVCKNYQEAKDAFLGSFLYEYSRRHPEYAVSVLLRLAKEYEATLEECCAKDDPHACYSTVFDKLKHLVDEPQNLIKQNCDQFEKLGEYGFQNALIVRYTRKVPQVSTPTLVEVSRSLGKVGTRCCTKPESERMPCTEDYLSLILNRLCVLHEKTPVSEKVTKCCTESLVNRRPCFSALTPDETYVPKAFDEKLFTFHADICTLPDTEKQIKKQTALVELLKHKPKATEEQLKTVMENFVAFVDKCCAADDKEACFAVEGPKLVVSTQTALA

| Binder | binding result (BSA) | EC50 (read off the curve) [1] [µg/mL] |
| --- | --- | --- |
| B1 | no binding (tested: about 500 nM) | – |
| B2 | – | ~4 |
